Assay results published in patent US20140356379A1 (CENTRE NATIONAL DE LA RECHERCHE SCIENTIQUE CNRS, published 2014).

T1: recombinant human sPLA2-V (human, UniProt P39877 21-138)
T1 construct: The cDNA for the mature enzyme was cloned in frame to an initiator Met codon; also called hGV; human PLA2-V
T1 sequence: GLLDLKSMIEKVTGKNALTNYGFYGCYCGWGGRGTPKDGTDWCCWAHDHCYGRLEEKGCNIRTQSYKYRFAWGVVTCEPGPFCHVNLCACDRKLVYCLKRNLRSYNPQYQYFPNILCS


Key:
[1] = biological target: T1, recombinant human sPLA2-V; experiment: indirect ELISA on coated recombinant human sPLA2-V, anti-mouse IgG-HRP detection, one-site saturation fit
[2] = biological target: T1, recombinant human sPLA2-V; experiment: indirect ELISA on coated recombinant human sPLA2-V, one-site saturation fit (relative Kd)
[3] = biological target: T1, recombinant human sPLA2-V; experiment: indirect ELISA on coated recombinant human sPLA2-V, streptavidin-HRP detection, one-site saturation fit

Binder	Kd [1]	Kd [2]	Kd [3]
19F3 antibody (antibody, V domains shown, also called mAb #19F3; hybridoma CNCM I-4522) VH: EVQLQLSGADLVKPGASVKLSCTASGFNIKDSYIHWVKQRPEPGLEWIGRIDPANGNTKYDPKFQGKATITADTSSNTAYLQLTSLTSEDTAVYYCARDVVALDYWGQGTTLTVSS VL: QIVLTQSPAIMSASPGEKVTMTCSASSSVSYMYWYQQKPGSSPRLLIYDTSNLASGVPVRFSGSGSGTSYSLTISRMEAEDAATYYCQQWSSYPLTFGAGTKLELKR	0.089 nM	0.0842 nM	
biotinylated monoclonal antibody #18G6 (antibody, V domains shown, biotinylated with a Pierce kit (ref. 21435); sites not stated, also called #18G6-Biot; 18G6-Biot) VH: QVQLQQSGPELVKPGASVKMSCKASGYTFTDYVITWVKQRTGQGLEWIGEIYPGSGSTYYDEKFKGKATLTADKSSNTAYMQLSSMTSEDSAVYFCARWFPYFDYWGQGTTLTVSS VL: QIVLTQSPAIMSASPGEKVTISCSASSSVSYMYWYQQKPGSSPKPWIYRTSNLASGVPARFSGSGSGTSYSLTISSMEAEDAATYYCQQYHSYPLTFGAGTKLELKR			0.31 nM
18G6 antibody (antibody, V domains shown, also called mAb #18G6; hybridoma CNCM I-4521) VH: QVQLQQSGPELVKPGASVKMSCKASGYTFTDYVITWVKQRTGQGLEWIGEIYPGSGSTYYDEKFKGKATLTADKSSNTAYMQLSSMTSEDSAVYFCARWFPYFDYWGQGTTLTVSS VL: QIVLTQSPAIMSASPGEKVTISCSASSSVSYMYWYQQKPGSSPKPWIYRTSNLASGVPARFSGSGSGTSYSLTISSMEAEDAATYYCQQYHSYPLTFGAGTKLELKR	0.53 nM	0.305 nM	
biotinylated monoclonal antibody #19F3 (antibody, V domains shown, biotinylated with a Pierce kit (ref. 21435); sites not stated, also called #19F3-Biot; 19F3-Biot) VH: EVQLQLSGADLVKPGASVKLSCTASGFNIKDSYIHWVKQRPEPGLEWIGRIDPANGNTKYDPKFQGKATITADTSSNTAYLQLTSLTSEDTAVYYCARDVVALDYWGQGTTLTVSS VL: QIVLTQSPAIMSASPGEKVTMTCSASSSVSYMYWYQQKPGSSPRLLIYDTSNLASGVPVRFSGSGSGTSYSLTISRMEAEDAATYYCQQWSSYPLTFGAGTKLELKR			0.0082 nM
